# Laboratory results taken from article PMC10784468 (Nature Communications, 2024).
# How the values were obtained:
# [1] = Critical aggregation concentration (pyrene probe, I338/I335); format: physicochemical; conditions: for I338/I335 (pyrene): pyrene 6 μM, emission 393 nm
# Protocol: The CACs were determined using pyrene as a fluorescent probe. In brief, 50 μL of pyrene solution in acetone (480 μM) was added to a 5 mL centrifuge tube, followed by adding a series of peptide-porphyrin conjugate solutions with different concentrations, and the tube was kept overnight to evaporate the acetone completely, the concentration of pyrene being fixed at 6 μM at last. The excitation spectra of the solutions were recorded with the emission wavelength fixing at 393 nm, and the intensity ratio (I338/I335) was calculated as a function of the concentration. The CAC was determined based on the intersection point at low concentration on the plot.
# ζ-potential in PBS = format: physicochemical; conditions: 40 μM in PBS, pH 7.4; mean of n = 3
# Protocol: Supplementary Fig. 12. ζ-potential change of Gi-F-CAA (40 μM) in PBS (0.01 M, pH 7.4 or 6.5) (n=3
# experimental repeats). Experiment was independently repeated three times with similar results. Values are
# (1 picture or pasted object on this page, not shown here)
# Supplementary Fig. 13. ζ-potential of NGi-F-CAA, Gi-F and Gi-F-SA (pH 7.4) (40 μM) in PBS (n=3
# EJ xenograft tumor = test: Penetration assay in tumor frozen sections (Cy labeled); conditions: mouse, in vivo, iv, 8 mg/kg
# Protocol: Firstly, EJ xenograft mice were administrated with Cy labeled Gi-F (8 mg/kg in 100 μL PBS) and Cy labeled Gi-F-CAA (8 mg/kg in 100 μL PBS) by intravenous injection. Afterward, EJ tumor tissues were entirely resected and protected from light. Subsequently, the tumor tissues were fixed with optimum cutting temperature (OCT) compound for 12 h at −20 °C avoiding light. Finally, the fixed tumor tissues were cut into sections and immediately observed with UltraVIEW VoX.
# EJ cells = test: Cytotoxicity assay (CCK-8) on EJ cells; conditions: pH 7.4
# Protocol: Initially, EJ cells were seeded into 96 well plates at a density of 5 × 10^3 per well and incubated in a CO2 incubator overnight at 37 °C. Subsequently, Gi-F (pH = 7.4), Gi-F-SA (pH = 7.4), NGi-F-CAA (pH = 7.4), NGi-F-CAA (pH = 6.5), Gi-F-CAA (pH = 7.4) and Gi-F-CAA (pH = 6.5) at different concentrations (1, 2, 4, 8, 16, 32, 64, 128 and 256 μM) was added to the cells and further incubated for 48 h. Finally, the cell viability rate was calculated by (Sample wells-Blank wells)/(Control wells-Blank wells) × 100%.
# EJ xenograft tumors = test: In vivo antitumor evaluation in EJ xenograft model (tumor volume, tumor weight, body weight); conditions: 8 mg/kg i.v.; for Tumor weight: six injections, 18 days
# Protocol: Female BALB/c nude mice (~8 weeks, 18 g) were subcutaneously inoculated with 5 × 10^6 EJ cells resuspended in Matrigel. When the tumor size reached about 100 mm^3, EJ tumor-bearing mice were randomly divided into four groups and administrated with PBS, Gi-F (8 mg/kg in 100 μL PBS), Gi-F-SA (8 mg/kg in 100 μL PBS) and Gi-F-CAA (8 mg/kg in 100 μL PBS) by intravenous injection at 2-days intervals for six times. Individual tumor volume and bodyweight of mouse after different treatment was collected at 2-days intervals for analysis. Mice were killed at 18 days post treatment unless endpoints were exceeded. Moreover, tumors from all groups were harvested under euthanasia and weighed for analysis at the end of treatment.
# EJ tumor tissues [2] = test: Tumor GSH content detection; format: in vivo, BALB/c nude mice; conditions: tumor
# Protocol: EJ tumor tissues were collected under euthanasia at the end of treatment and washed with PBS for 3 times. Afterwards, the tumor lysates were collected by centrifugation at 8000 rpm for 10 min at 4 °C after lysed with Frozen Type Tissuelyser. Finally, the GSH contents were measured with a GSH Assay Kit based on the manufacturer’s instructions.
# EJ tumor tissues [3] = test: Tumor MDA content detection; format: in vivo, BALB/c nude mice; conditions: tumor
# Protocol: EJ tumor tissues were collected under euthanasia at the end of treatment and washed with PBS for 3 times. Afterwards, the tumor lysates were collected by centrifugation at 8000 g for 10 min at 4 °C after lysed with Frozen Type Tissuelyser. Finally, the MDA contents were measured by thiobarbituric acid (TBA) reaction with a Malondialdehyde (MDA) Assay Kit (Solarbio Science & Technology Co., Ltd., China, BC0025) based on the manufacturer’s instructions.
# GPX4 = biological target: T1, GPX4 (Homo sapiens, UniProt P36969); test: Tumor GPX4 activity detection; format: in vivo, BALB/c nude mice; set-up: from tissue; host or cells: EJ xenograft tumour tissue from BALB/c nude mice
# T1 sequence (P36969 1-197): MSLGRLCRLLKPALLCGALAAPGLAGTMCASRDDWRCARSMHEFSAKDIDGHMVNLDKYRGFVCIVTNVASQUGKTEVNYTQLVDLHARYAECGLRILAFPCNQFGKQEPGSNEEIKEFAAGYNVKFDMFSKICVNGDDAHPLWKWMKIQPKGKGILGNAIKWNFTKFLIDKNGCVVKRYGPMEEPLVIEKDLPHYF
# Protocol: EJ tumor tissues were collected under euthanasia at the end of treatment and washed with PBS for 3 times. Afterwards, the tumor lysates were collected by centrifugation at 5000 rpm for 10 min at 4 °C after lysed by freeze-thaw treatment. Finally, the GPX4 activity were measured with a GPX Assay Kit based on the manufacturer’s instructions.
substance,measurement,setting,value
FeTCPP-LKLKLKGACNWLPLYPCPV (disulfide) [Gi-F],I338/I335 (pyrene),[1]; conjugate 0.97656 μM,0.9792
same,I338/I335 (pyrene),[1]; conjugate 1.95313 μM,0.979
same,I338/I335 (pyrene),[1]; conjugate 3.90625 μM,0.9785
same,I338/I335 (pyrene),[1]; conjugate 7.8125 μM,0.9903
same,I338/I335 (pyrene),[1]; conjugate 15.625 μM,1.011
same,I338/I335 (pyrene),[1]; conjugate 31.25 μM,1.031
same,I338/I335 (pyrene),[1]; conjugate 62.5 μM,1.099
same,I338/I335 (pyrene),[1]; conjugate 125 μM,1.141
same,I338/I335 (pyrene),[1]; conjugate 250 μM,1.203
same,I338/I335 (pyrene),[1]; conjugate 500 μM,1.248
same,I338/I335 (pyrene),[1]; conjugate 1000 μM,1.254
same,critical aggregation concentration (CAC),"[1]; pyrene probe, I338/I335, PBS 0.01 M, pH 7.4",13.8 µM
same,Zeta potential (mV),ζ-potential in PBS,-8.4 mV
same,"tumor penetration, fluorescence distribution in tumor sections",EJ xenograft tumor,only distributed around the periphery of tumor tissues
same,IC50,EJ cells,11.3 µM
same,mean tumor volume at 18 days post injection,"EJ xenograft tumors; six injections at 2-days intervals, n = 6",1426 mm^3
same,Tumor weight,EJ xenograft tumors; mice 1,1.433 g
same,Tumor weight,EJ xenograft tumors; mice 2,1.25 g
same,Tumor weight,EJ xenograft tumors; mice 3,1.087 g
same,Tumor weight,EJ xenograft tumors; mice 4,1.055 g
same,Tumor weight,EJ xenograft tumors; mice 5,0.939 g
same,Tumor weight,EJ xenograft tumors; mice 6,1.259 g
same,Relative content of GSH,EJ tumor tissues [2]; mice 1,0.74
same,Relative content of GSH,EJ tumor tissues [2]; mice 2,0.713
same,Relative content of GSH,EJ tumor tissues [2]; mice 3,0.713
same,Relative content of GSH,EJ tumor tissues [2]; mice 4,0.681
same,Relative content of GSH,EJ tumor tissues [2]; mice 5,0.676
same,Relative content of GSH,EJ tumor tissues [2]; mice 6,0.763
same,Relative content of MDA,EJ tumor tissues [3]; mice 1,2.1
same,Relative content of MDA,EJ tumor tissues [3]; mice 2,2.6
same,Relative content of MDA,EJ tumor tissues [3]; mice 3,2.35
same,Relative content of MDA,EJ tumor tissues [3]; mice 4,2.5
same,Relative content of MDA,EJ tumor tissues [3]; mice 5,2.3
same,Relative content of MDA,EJ tumor tissues [3]; mice 6,2.45
same,Relative activity of GPX4,GPX4; mice 1,0.57
same,Relative activity of GPX4,GPX4; mice 2,0.52
same,Relative activity of GPX4,GPX4; mice 3,0.57
same,Relative activity of GPX4,GPX4; mice 4,0.57
same,Relative activity of GPX4,GPX4; mice 5,0.52
same,Relative activity of GPX4,GPX4; mice 6,0.57
